# Laboratory results as given in patent US20130344098A1.
# Molecular target: anti-Fel d1 mAB 6F9
# Assay: sandwich ELISA: mAB 6F9 coated, Fel d1 protein in doubling dilutions 80-0.16 ng/ml, detected with biotinylated mAB 3E4; Fel d1 (ng/ml) at OD50%
substance,measurement,value
natural Fel d1 (from UniProt P30440 18-109),EC50,7.2 ng/mL
